T1: hnRNPDL-2 (soluble) (human, UniProt O14979-2 1-301)
T1 sequence: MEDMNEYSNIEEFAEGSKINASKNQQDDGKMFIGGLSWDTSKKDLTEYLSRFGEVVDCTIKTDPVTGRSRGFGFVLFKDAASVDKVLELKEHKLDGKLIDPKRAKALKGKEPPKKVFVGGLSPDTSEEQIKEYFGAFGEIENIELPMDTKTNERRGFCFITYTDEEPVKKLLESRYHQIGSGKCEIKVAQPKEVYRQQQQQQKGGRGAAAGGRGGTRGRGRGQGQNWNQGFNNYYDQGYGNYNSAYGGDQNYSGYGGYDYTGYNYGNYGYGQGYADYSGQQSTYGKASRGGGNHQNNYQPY


What was measured:
hnRNPDL-2 (soluble) = target: T1, hnRNPDL-2 (soluble); assay: EMSA; apparent Kd, Hill fit; 50 nM probe; EMSA: 10 ul, 50 nM probe, 24 h at RT, 8% polyacrylamide gel, buffer not stated; fibril binding: 24 h at RT, spin 16,000 x g at 4 C, pellet wash 50 mM HEPES pH 7.5, 150 mM NaCl; details: protein: recombinant; tags: N-terminal His-SUMO (expression construct); label: fluorescein, printed at 5' side (F-); FITC in peer review file; single strand, 7-mer
[1] = target: the molecule itself; assay: cryo-EM structure; helical reconstruction of amyloid fibrils formed at pH 7.5, 300 mM NaCl; single protofilament, cross-beta stacking of subunits; 2.5 Å

Binder | Kd (hnRNPDL-2 (soluble)) [µM] | binding result [1]
GACUAGC (ssRNA) [F-RNA (F-GACUAGC)] | 22.8 ± 3.95 | 
hnRNPDL-2 (human heterogeneous ribonucleoprotein D-like, isoform 2), wild type (natural protein, UniProt O14979-2 1-301, looked up, Heterogeneous nuclear ribonucleoprotein D-like, human, isoform hnRNPDL-2 of 301 residues (RRM1, RRM2, C-terminal Y/G-rich LCD ~201-285, PY-NLS 281-301; exon 6 = residues 224-280). numbers count on: hnRNPDL-2 (the 301-residue isoform); Cloned in pETite with a His-SUMO N-terminal tag; In the fibril the subunits stack in a single protofilament; also called WT hnRNPDL-2; full-length hnRNPDL-2; …) MEDMNEYSNIEEFAEGSKINASKNQQDDGKMFIGGLSWDTSKKDLTEYLSRFGEVVDCTIKTDPVTGRSRGFGFVLFKDAASVDKVLELKEHKLDGKLIDPKRAKALKGKEPPKKVFVGGLSPDTSEEQIKEYFGAFGEIENIELPMDTKTNERRGFCFITYTDEEPVKKLLESRYHQIGSGKCEIKVAQPKEVYRQQQQQQKGGRGAAAGGRGGTRGRGRGQGQNWNQGFNNYYDQGYGNYNSAYGGDQNYSGYGGYDYTGYNYGNYGYGQGYADYSGQQSTYGKASRGGGNHQNNYQPY |  | binds
